In US20130071374A1 (UNIVERSITY OF MEDICINE AND DENTISTRY OF NEW JERSEY, published 2013):

Assays:
[1] = biological target: T1, PemK(His)6 (E. coli (plasmid R100), UniProt P13976 24-133); assay: co-purification on Ni-NTA after co-expression
T1 construct: also called Kid

[2] = biological target: MazF(His)6 (Escherichia coli, UniProt P0AE70 1-111); assay: tricine SDS-PAGE of the purified complex, densitometry
[3] = biological target: T2, MazF (Escherichia coli, UniProt P0AE70 1-111); assay: native PAGE, second dimension SDS-PAGE, densitometry
T2 sequence: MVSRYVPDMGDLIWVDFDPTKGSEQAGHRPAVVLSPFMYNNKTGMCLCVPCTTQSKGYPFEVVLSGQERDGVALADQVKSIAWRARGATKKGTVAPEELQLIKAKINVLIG

B1: PemI (other)
chain: MHTTRLKRVGGSVMLTVPPALLNALSLGTDNEVGMVIDNGRLIVEPYRRPQYSLAELLAQCDPNAEISAEEREWLDAPATGQEEI
binding result [1]: binds

B2: MazE (other)
chain: MIHSSVKRWGNSPAVRIPATLMQALNLNIDDEVKIDLVDGKLIIEPVRKEPVFTLAELVNDITPENLHENIDWGEPKDKEVW
notes: also called antitoxin MazE; ChpAI
ratio of MazF(His)6 to MazE in the complex [2]: ~2

B3: (His)6MazE (other)
chain: MIHSSVKRWGNSPAVRIPATLMQALNLNIDDEVKIDLVDGKLIIEPVRKEPVFTLAELVNDITPENLHENIDWGEPKDKEVW
notes: also called wild-type (His)6MazE; MazE with N-terminal (His)6 tag
ratio of MazF to (His)6MazE in the complex [3]: ~1.8
